Data: the nanobody polyreactivity screen of Harvey et al. (2022)

experiment: yeast display, Sf9 membrane polyspecificity reagent, FACS + sequencing; frameworks hold sequencing errors
Summary of the method: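 Polyreactivity labels are assigned by the sorting gate from which each nanobody was recovered. The gates were low and high (top ~1%), set on anti-HA fluorescence for expression and streptavidin fluorescence for reagent binding. Before sorting, galactose-induced (36–48 hours) yeast display cells were stained for 1 hour at 4 °C with 10% biotinylated, detergent-solubilized Sf9 membrane reagent.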

Row | Sequence | polyreactivity (PSR sort gate)
1 | QVQLVESGGGLVQAGGSLRLSCAASGRTFVYNAMGWYRQAPGKERELVAAITTNGGSTYYADSVKGRFTISRDNSKNTVYLQMNSLKPEDTAVYYCAADYSLPWSWLYEYWGQGTQVTVSS | low polyreactivity
2 | QVQLVESGGGLVQAGGSLRLSCAASGRTFVYNGMGSYRQAPGKERELVAAISGSGGSTYYADSVKGRFTISRDNAKNTVYLQMNSLKPEDTAVYYCATRQGYRLYYWGQGTQVTVSS | high polyreactivity
3 | QVQLVESGGGLVQAGGSLRLSCAASGRTFVYNTMGWYRQAPGKERELVASISSTGGNTYYSDSVKGRFTISRDNAKNTVYLQMNSLKPEDTAVYYCAAGAWTRGQYYYWGQRTQVTVSS | high polyreactivity
4 | QVQLVESGGGLVQAGGSLRLSCAASGRTFVYYAMGWYRQAPGKEREFVAAISRSGGRTSYADSVKGRFTISRDNAKNTVYLQMNSLKPEDTAVYYCAAEKRTQPTSREYYWVQGTQVTVSS | high polyreactivity
5 | QVQLVESGGGLVQAGGSLRLSCAASGRTFVYYAMGWYRQAPGKERELVARISYSGGSTYYADSVKGRFTISRDNAKKTVYLQMNSLKPEDTAVYYCSQAGYSPVYGYWGQGTQVSVSS | high polyreactivity
6 | QVQLVESGGGLVQAGGSLRLSCAASGRTFVYYAMGWYRQAPGKERELVASISSVGTTKYADSVQGRFTISRANAKNTVYLQMNSLKPEDTAVYYCAAVPLSRNIFDSWGQGTQVTVSS | low polyreactivity
7 | QVQLVESGGGLVQAGGSLRLSCAASGRTFVYYDMGWSRPAPGKERELVAAIDSSGSTYYADSVKGRFTISRDNAKNTVYLQMNSLKPEDTAVYYCAAGYWFFPYWYDYWGQGTQVTVSS | high polyreactivity
8 | QVQLVESGGGLVQAGGSLRLSCAASGRTFWANAMGWYRPAPGKERELVAAITIGGRTYYADSVKGRFTISRDNAKNTVYLQMNSLKPEDTAVYYCNAGTRRPFPAESGYWGQVTQVTVSS | low polyreactivity
9 | QVQLVESGGGLVQAGGSLRLSCAASGRTFWAYAMGWYRPAPGKERELVSAITTSGGSTNYADSVKGRFTISRDNAKNTVYLHMIRLKPEDTAVYYCNADPTYHVVNGVGYWGQGTQVTVSS | low polyreactivity
10 | QVQLVESGGGLVQAGGSLRLSCAASGRTFWDYAMGWYRQAPGKEREFVAAINTSGGRTYYADSVKGRFTISRDNAKNTVYLQMNSLKPEDTAVYYCAARTRDRAYDSWGQGTQVTVSS | high polyreactivity
11 | QVQLVESGGGLVQAGGSLRLSCAASGRTFWFYGMGWYREAAGKEREFVARISGSGGSTYYADSVKGRFTISRDNAKNTVYLQMNSLKPEDTAVYYCAKDNRYPYPSGLDYWGQGTQVTVSS | high polyreactivity
12 | QVQLVESGGGLVQAGGSLRLSCAASGRTFWGYAMGWYRQAPGKERELVATISSTGSTNYAESVKGRFTISRDNAKNTVYFQMNSLKPEATAVYYCNAKRHVYRGWYQRYDYWGQGTQVTVSS | high polyreactivity
13 | QVQLVESGGGLVQAGGSLRLSCAASGRTFWINAMGWYRQAPGKERELVAAITRGGRTYADSVKGRFTISRDNAKYTVYLQMNSLKPEDTAVYYCAAESYRLSGHHGYDYWGQCTQVTVSS | high polyreactivity
14 | QVQLVESGGGLVQAGGSLRLSCAASGRTFWIYAMGWYRQAPGKEREFVAAISSSGGGTYYADSVKGRFTISRDNAKNTVYLQMNSLKPEDTAVYYCAADDGYSSNEFDYWGQGTQVTVSS | low polyreactivity
15 | QVQLVESGGGLVQAGGSLRLSCAASGRTFWIYAMGWYRQAPGKEREFVAAISSSGGGTYYADSVKGRFTISRDNAKNTVYLQMNSLKPEDTAVYYCAKDLYFSKGYYWGQGTQVTVSS | low polyreactivity
16 | QVQLVESGGGLVQAGGSLRLSCAASGRTFWIYGMGWYRQAPGKERELVAAITRSGGSTNYADSVKGRFTISRDNAKNTVYLQMKSLKPEDTAVYYCAADTWYPGYYAYDYWGQGTQVTVSS | high polyreactivity
17 | QVQLVESGGGLVQAGGSLRLSCAASGRTFWNYAMGWYRQAPGKERELVAVIRFSDGSTYYSDSVKGRFTISRDKAKNTVYLQMNSLKPEDTAVYYCGAKGPRRWGSGFDYWGQGTQVNVSS | low polyreactivity
18 | QVQLVESGGGLVQAGGSLRLSCAASGRTFWPNVMGWYRQAPGKERELVAAITWGDASTYYADSVKGRFTISRDNAKNTVYLQMNSLKPEDTAGYSCAASDYRSTYDYWGQGTQVTVSS | low polyreactivity
19 | QVQLVESGGGLVQAGGSLRLSCAASGRTFWRYAMGWYRQAPGKERELVAAITSGGGSTYYADSVKGRFTISRDNAKNTVYLQMNSLKPEDTAVYYCNRAGRGRSFKGDYWGQGTQVTVSS | high polyreactivity
20 | QVQLVESGGGLVQAGGSLRLSCAASGRTFWRYAMGWYRQAPGKERELVADISNSDTSTYYADSVKGRFTISRDNAKNSVYLQMKSLKPEDTAVYYCAARPFRFRLSDKYNYWGQGTQVTVSS | high polyreactivity
21 | QVQLVESGGGLVQAGGSLRLSCAASGRTFWSNAMGWYRQAPGKERELVADITFSGGRTYYADSVKGRFTISRDNAKNTVYLQMNSLKPEDTAVYYCAASATPSGVGMDYWGQGTQVTVSS | low polyreactivity

Row | Sequence | polyreactivity (PSR sort gate)
22 | QVQLVESGGGLVQAGGSLRLSCAASGRTFWSYAMGWYRPAPGKERELVAAINSSGDSTNYADSVKGRFTISRDNAKNTVYLQMNWLKPEDTAVYYCAADGGLLAGSDATVRMDYWGQGTQVTVSS | low polyreactivity
23 | QVQLVESGGGLVQAGGSLRLSCAASGRTFWSYAMGWYRQAPGKERELVATINDSDGSTYADSVKGRFTISRDNAKNTVYLQMNSLKPEDTAVYYCNAQTRAGYYFGYGYWGQGTQVTVSS | low polyreactivity
24 | QVQLVESGGGLVQAGGSLRLSCAASGRTFWTNAKGWYRQAPGKERDFFAAISWRGASTFYADSVKGRFTISRYNAKNTVYLQMNSLKPEDTAVYYCAAQSRTRSFYGKYDSWGQGTQVTVSS | low polyreactivity
25 | QVQLVESGGGLVQAGGSLRLSCAASGRTFWTNAMGWYRQAPGKERELVAAISWTTGSTNYADSVKGRFTISRDNAKNTVYLQMNSLKPEDTAVYYWAADSQYGWPEYEYDYWGQGTQVTVSS | low polyreactivity
26 | QVQLVESGGGLVQAGGSLRLSCAASGRTFWTYAMGWYRLAPGKERELVASISKSGGSTYADSVKGRFTITRDNAKNTVYLQMNSLKPEDTAVYYCATDLSYDVWFFGPDYDYWGQGTQVTVSS | low polyreactivity
27 | QVQLVESGGGLVQAGGSLRLSCAASGRTFWVYAMGWYRQAPGKERELVAAISRSGVSTYYADSVKGRFTISRDNAKNTVYLQMNSLKPEDTAVYYCAAPLIYTPLKYHYWGQGTQVTVSS | low polyreactivity
28 | QVQLVESGGGLVQAGGSLRLSCAASGRTFWWYAMGWYRQAPGKERALVAGISSGGSTYYADSVKGRCTISRDNAKKTVYLLMNSRKPEETAVYYCAKTYWYPWRASLWHEYDYWGQGTQVTVSS | low polyreactivity
29 | QVQLVESGGGLVQAGGSLRLSCAASGRTFWYNAMGWYRQAPGKEREFVAAIRWTTGSTYYADSVKGRFTISRDNAKNTVYLQMNSLKPEDTAVYYCAASLYPVRRDYWGQGTQVTVSS | high polyreactivity
30 | QVQLVESGGGLVQAGGSLRLSCAASGRTFWYNAMGWYRQAPGKERELVAVISSGAITYYADSVKGRFTISRDNAKNTVYLQMNSLKPEDTAVYYCAARSYLSLIDYWGQGTQVTVSS | high polyreactivity
31 | QVQLVESGGGLVQAGGSLRLSCAASGRTFWYNAMGWYRQAPGKERELVAVISSGAITYYADSVKGRFTISRDNAKNTVYLQMNSLKPEDTAVYYCNAQRRGTYYWGQGTQVTVSS | high polyreactivity
32 | QVQLVESGGGLVQAGGSLRLSCAASGRTFWYYAMGWYRQAPGKERELVAAITYRGGSTYYADSVKGRFTISRDNVKNTVYLQMNSLKPEDTAVYYCARRVDSYYGHTRYYYWGQGTQVTVSS | high polyreactivity
33 | QVQLVESGGGLVQAGGSLRLSCAASGRTFWYYAMGWYRQAPGKERELVADITRRGGGTYYADSVKGRFTISRDNAKNTVYLQMNSLKPEDTAVYYCAVERWPRSYPPSYDYWGQGTQVTVSS | high polyreactivity
34 | QVQLVESGGGLVQAGGSLRLSCAASGRTFWYYAMGWYRQAPGNERELVATISYRGGSTYYADSVKGRFTISRDNAKNTVYLQMNSLKPEDPAVYYSAAKQWWGGRPKVDYWGQGTQVTVSS | high polyreactivity
35 | QVQLVESGGGLVQAGGSLRLSCAASGRTFWYYAMVWSRQAPGKERELVAGITFTGGRTYYADSVKGRFTISRDNSKNTVYLQMNSLKPEDTAVYYCAAAGLDVGRKDRDGYWGQGTQVTVSS | low polyreactivity
36 | QVQLVESGGGLVQAGGSLRLSCAASGRTFWYYPMGGYRQEPGKERELVAAITRGTSTYADSVKGRFTISRDNAKTTVYLQMNSLKPEDTAVDYCAADTWGTRNSRYDYWGQGTQVTVSS | high polyreactivity
37 | QVQLVESGGGLVQAGGSLRLSCAASGRTFYANAMGWYRQAPGKERELVAAISSSGSRTYYADSVKGRFTISRDNAKNTVYLQMNSLKPEDTAVYYCNAAAPYLTRQHWARDYWGQGTQVTVSS | high polyreactivity
38 | QVQLVESGGGLVQAGGSLRLSCAASGRTFYANDMGWYRQAPGKERELVARITSGGSTYYADSVKGRFTISRDNAKNTVYLQMNSLKPEDTAVYYCAAVTRRFSYRYNYWGQGTQVTVSS | high polyreactivity
39 | QVQLVESGGGLVQAGGSLRLSCAASGRTFYAYAMGWSRQAPGKERELVAAISWRGGDTYYADSVKGRFTISRDNAKNTVYLQMNSLKPEDTAVYYCAKYLSRQSGDGEYDYWGQGTQVTVSS | low polyreactivity
40 | QVQLVESGGGLVQAGGSLRLSCAASGRTFYAYAMGWYRQAPGKERELVAAISSGGSTYYADSVKGRFTISRDNAKNTVYLQMNSLKPEDTAVYYCNAGYYQWPFSGYDYWGQGTQVTVSS | low polyreactivity
41 | QVQLVESGGGLVQAGGSLRLSCAASGRTFYAYAMGWYRQAPGKERELVSAISWRGGDTYYADSVKGRFTISRDYAKNTVYLQMHSLIPEDTAFYYCAADFTYTWDAAQGYDYWGQGPQVTVSS | low polyreactivity
